# From publication PMC12248280
# Biological target: hDPP4-Fc (human DPP4 residues 39 to 766 fused at its C terminus to the Fc domain of human IgG) (human) (UniProt P27487)
# Assay: BLI
# Sequence of UniProt P27487 (P27487 39-766): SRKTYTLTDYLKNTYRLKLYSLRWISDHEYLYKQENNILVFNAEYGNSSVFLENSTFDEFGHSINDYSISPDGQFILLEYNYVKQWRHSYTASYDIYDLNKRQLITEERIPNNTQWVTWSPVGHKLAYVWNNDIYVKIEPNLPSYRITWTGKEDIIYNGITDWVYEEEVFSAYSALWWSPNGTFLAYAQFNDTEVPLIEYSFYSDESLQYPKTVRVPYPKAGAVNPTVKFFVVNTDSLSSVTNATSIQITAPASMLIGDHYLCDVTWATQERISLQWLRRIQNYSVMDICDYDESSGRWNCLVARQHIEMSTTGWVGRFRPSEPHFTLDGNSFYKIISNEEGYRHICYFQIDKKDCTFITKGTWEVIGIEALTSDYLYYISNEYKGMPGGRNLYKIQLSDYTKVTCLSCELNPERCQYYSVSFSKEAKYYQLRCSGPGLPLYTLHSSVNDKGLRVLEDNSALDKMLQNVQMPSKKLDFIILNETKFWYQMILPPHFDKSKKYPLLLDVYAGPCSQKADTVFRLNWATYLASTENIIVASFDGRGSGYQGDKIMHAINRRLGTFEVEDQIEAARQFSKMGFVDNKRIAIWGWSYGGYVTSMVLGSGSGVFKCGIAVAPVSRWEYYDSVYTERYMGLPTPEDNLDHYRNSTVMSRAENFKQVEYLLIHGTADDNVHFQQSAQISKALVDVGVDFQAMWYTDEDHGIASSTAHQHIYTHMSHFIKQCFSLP
substance,measurement,value
"GD-BatCoV-S (GD-BatCoV S-trimer, GD-BatCoV-S-6P) (domain or fragment)",Kd,5.3 nM
